From patent US20250179183A1 come the findings set out here.

In general, Kd refers to the constant that tells how readily two partners part at equilibrium.

Test [1] addresses cynomolgus monkey CD32a (cynomolgus monkey).
Test [2] concerns the target cynomolgus monkey CD32b (cynomolgus monkey).
The target in test [3] is cynomolgus monkey CD32a (cynomolgus monkey). This is another data set of the same source.

Where two headings read alike, the source gives them in different places.

For Rituximab (antibody), the Kd in test [1] was 5.94 µM; in test [2], 1.46 µM; in test [3], 3.13 µM.
